Data: publication PMC4604771, “A novel eurythermic and thermostale lipase LipM from Pseudomonas moraviensis M9 and its application in the partial hydrolysis of algal oil” (BMC Biotechnology, 2015)

Substrate: CCCCCCCC(=O)Oc1ccc([N+](=O)[O-])cc1
Assay: p-nitrophenol release, Lineweaver-Burk plot
Type: biochemical, Pseudomonas moraviensis
Conditions: 50 mM Tris-HCl, pH 8.0, 65 °C, 0.01-2 mM substrate

B1: LipM (Pseudomonas moraviensis) (protein)
chain: MGLFDYRNADGKALYSDAIALTLYAYAPTGEPLPATAWAPVAATALGYQGKVGPQGTFFGEQDGYTSAEAEVLGKYDAAGKLIGIGIAFRGTGGLGYSDTYGDMKNNLLAAFGPSDYASHYAKNAFDHLLKAVAAFAIANGIAAQDVLISGHSLGGLGVNSVAELSASHWGGFFKDANYIAFASPTQSSTGSNVLNIGYENDPVFRALDGTTFSSGSLGKHDGAHDSTTDNIVNFTDNYASTAQNLVPFSIVNPLNWSAHSSLGYADGLNRVIDSQFYALTHKDSTIIVSNLEEASRGKTWVEDLGRSGEPHVGSTLIIGTHSSDWLKGGSGNDFLEGLGGDDRFRDDGGFNILLGGQGHNTFELQKPLQNFSFANDGDGTLYVRDAYGGISLTRDIGALVSKEAGSWWGSKEITWGVTAKGLSNGSELTQYNHSLSGDGYGNALHASADGDWLFGLGGNDSLISDKGHVTFVGGAGNDVMTALGGNNTFLFSGAFGFDAVNGYQGNDKLVFMGVEGAGQGYDYKQHASQSGDDTVLKIGDYAVTLIGVGVANLSDSSIMFA
notes: pET-22b(+) NdeI/XhoI, His tag kept (C-terminal by vector)
- Km: 0.36 mM
- kcat: 35.7 s⁻¹
